Consider 14 molecules from patent US20170355769A1 (AbbVie / Abbott, published 2017).

What is called EC50 is the concentration giving half of the maximal effect. A word on the Kd: it is the free concentration of one partner at which half of the binding sites on the other are occupied at equilibrium, for simple one-to-one binding. A high value points to lower affinity.

Where a chain is given by its changes, count along the chain named.

Test [1] has as its target T1, hB7-H3 (ELISA antigen of Tables 17 and 20) (human, UniProt Q5ZPR3 29-466, limits assumed).
T1 sequence: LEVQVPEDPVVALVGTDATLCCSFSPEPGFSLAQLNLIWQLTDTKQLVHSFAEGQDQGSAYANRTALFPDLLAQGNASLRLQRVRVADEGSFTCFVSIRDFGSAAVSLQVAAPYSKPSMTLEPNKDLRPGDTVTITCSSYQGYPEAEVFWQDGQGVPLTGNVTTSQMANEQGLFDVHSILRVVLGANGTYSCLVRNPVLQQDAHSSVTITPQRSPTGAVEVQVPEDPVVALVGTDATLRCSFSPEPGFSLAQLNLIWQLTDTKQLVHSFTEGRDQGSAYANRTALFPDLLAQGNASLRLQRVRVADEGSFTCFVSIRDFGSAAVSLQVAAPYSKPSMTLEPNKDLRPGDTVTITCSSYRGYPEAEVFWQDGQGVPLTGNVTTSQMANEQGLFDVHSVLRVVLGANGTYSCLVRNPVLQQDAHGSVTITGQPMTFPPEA
As to the kind of experiment: ELISA. Background: ELISA stands for enzyme-linked immunosorbent assay.

The target in test [2] is T2, Human full length B7-H3 (human, UniProt Q5ZPR3 29-534).
T2 sequence: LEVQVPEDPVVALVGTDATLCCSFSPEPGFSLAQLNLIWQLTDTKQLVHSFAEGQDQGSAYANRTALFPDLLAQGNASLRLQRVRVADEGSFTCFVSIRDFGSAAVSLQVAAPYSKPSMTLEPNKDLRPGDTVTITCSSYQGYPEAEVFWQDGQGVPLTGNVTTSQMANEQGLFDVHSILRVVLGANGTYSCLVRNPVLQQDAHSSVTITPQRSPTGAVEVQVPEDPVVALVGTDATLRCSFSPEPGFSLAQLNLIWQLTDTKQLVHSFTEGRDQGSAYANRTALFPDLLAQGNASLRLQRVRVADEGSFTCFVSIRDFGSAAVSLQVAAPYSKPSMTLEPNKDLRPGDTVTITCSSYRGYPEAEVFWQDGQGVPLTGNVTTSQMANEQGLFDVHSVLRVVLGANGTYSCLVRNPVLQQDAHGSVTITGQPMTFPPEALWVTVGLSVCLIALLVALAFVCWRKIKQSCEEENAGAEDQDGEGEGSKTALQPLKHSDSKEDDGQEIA
The test can be described thus: cell-based or functional assay.

Test [3] deals with T3, Cynomolgous B7-H3 on cells (cynomolgus).
T3 construct: whole, on cells; also called cyB7-H3; cyno B7-H3
As to the kind of experiment: FACS, 3T12 transfectants. A general note: In flow cytometry, cells or beads pass a laser one at a time.

The target of test [4] is T2, Human full length B7-H3. As to the kind of experiment: FACS, 3T12 transfectants.
In test [5] the target is T4, Human B7-H3-ECD (His tag) (human, UniProt Q5ZPR3 29-461).
T4 construct: SPR analyte; also called huB7-H3; soluble ECD of human B7-H3
T4 sequence: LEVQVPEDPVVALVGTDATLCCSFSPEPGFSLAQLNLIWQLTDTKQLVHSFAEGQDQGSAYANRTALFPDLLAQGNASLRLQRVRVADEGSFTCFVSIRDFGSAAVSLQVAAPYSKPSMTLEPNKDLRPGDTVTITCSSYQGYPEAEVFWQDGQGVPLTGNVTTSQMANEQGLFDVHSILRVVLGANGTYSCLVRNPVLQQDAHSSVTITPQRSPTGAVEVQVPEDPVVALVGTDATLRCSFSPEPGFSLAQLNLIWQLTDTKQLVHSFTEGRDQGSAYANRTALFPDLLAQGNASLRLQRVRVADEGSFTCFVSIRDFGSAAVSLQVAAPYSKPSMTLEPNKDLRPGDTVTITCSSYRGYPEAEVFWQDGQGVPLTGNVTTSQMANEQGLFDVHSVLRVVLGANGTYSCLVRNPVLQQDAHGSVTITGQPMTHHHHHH
As to the kind of experiment: SPR Biacore, naked mAb. The source says:
Biacore T200 SPR instruments were used to measure the binding kinetics of human B7-H3 (analyte) binding to various mAbs (ligands). The assay format was Fc-based capture via immobilized anti-mouse (Fc) (Pierce 31170) or immobilized anti-human (Fc) (Pierce 31125). A standard amine coupling protocol was employed to immobilize the capture reagents via primary amines to the carboxy-methyl (CM) dextran surface of CM5 sensorchips (Biacore); capture antibodies were coupled to a level of approximately 5000RU. For binding kinetic measurements the assay buffer was HBS-EP+ (Biacore): 10 mM Hepes, pH7.4, 150 mM NaCl, 3 mM EDTA, 0.05% polysorbate 20. During the assay, all measurements were referenced against the capture surface alone. Each assay cycle consisted of the following steps: 1) Capture of ligand to approximately 50RU; 2) Analyte injection over both reference and test surface, 240 μL at 80 μL/min, after which the dissociation was monitored for 900 seconds at 80 μL/min; 3) Regeneration of capture surface with low pH glycine. […] Data were processed and fit to a 1:1 binding model using Biacore T200 Evaluation Software to determine the binding kinetic rate constants, kₐ (on-rate) and kd (off-rate), and the equilibrium dissociation constant (affinity, KD).
(§1) These variants were further characterized for binding by SPR and as ADCs conjugated to the Bcl-xL inhibitor synthon (linker warhead) CZ. […] An ADC comprising chAb3 conjugated to synthon CZ was used as a control.
(SPR reads the build-up and loss of mass on a sensor chip optically.)

For test [6], the target named is T2, Human full length B7-H3. The test can be described thus: FACS (Example 6 method). How it is done: (§2) Cells were harvested from flasks when approximately 80% confluent using Gibco® Cell Dissociation Buffer. Cells were washed once in PBS/1% FBS (FACS buffer) then resuspended at 2.5×10⁶ cells/mL in FACS buffer. 100 μL of cells/well were added to a round bottom 96-well plate. 10 μL of a 10× concentration of mAb/ADC (final concentrations are indicated the figures). Wells were washed twice with FACS buffer and resuspended in 50 μL of secondary Ab (AlexaFluor 488) diluted in FACS buffer. The plate was incubated at 4° C. for one hour and washed twice with FACS buffer. Cells were resuspended in 100 μL of PBS/1% formaldehyde and analyzed on a Becton Dickinson LSRII flow cytometer. Data was analyzed using WinList flow cytometry analysis software.
as §1

Test [7] concerns the target T2, Human full length B7-H3. The test can be described thus: FACS, NCI-H1650 cells. How it is done:
To generate purified chimeric antibodies, expression vectors were transiently transfected into HEK293 6E suspension cell cultures in a ratio of 60% to 40% light to heavy chain construct. 1 mg/ml of polyethylenimine (PEI) or 2.6 μL/mL of Expifectamine was used to transfect the cells. Cell supernatants were harvested after five days in shaking flasks, spun down to pellet cells, and filtered through 0.22 μm filters to separate IgG from culture contaminants. Antibody-containing supernatants were purified on Akta Pure using protein A mAb SelectSure. Columns were equilibrated in PBS pH 7.4, supernatants were then passed through the column and a wash was performed with PBS pH 7.4. IgG were eluted with 0.1 M acetic acid pH 3.5 and collected in several aliquots. Fractions containing IgG were pooled and dialyzed in PBS overnight at 4° C.
as §2

In test [8] the target is T2, Human full length B7-H3. The test can be described thus: FACS, cell surface human B7-H3 (as Example 6). How it is done: as §2
Nine anti-B7-H3 chimeric antibodies were conjugated to the Bcl-xL inhibiting (Bcl-xLi) synthon CZ (Example 2.1) using conjugation Method A described below. The resulting ADCs (anti-B7-H3 antibodies conjugated to synthon CZ) were tested for binding to cell surface human B7-H3 by FACS (as described in Example 6) and for cell cytotoxicity in cell lines expressing B7-H3. […] Table 6 provides cell surface binding and cytotoxicity activity of anti-B7-H3 chimera ADCs against breast cancer cell HCC38 expressing human B7-H3.

B1: huAb3v2.5-CZ (antibody, human IgG1, kappa, L234A L235A, V domains shown)
VH: EVQLVQSGAEVKKPGSSVKVSCKASGYTFSSYWMHWVRQAPGQGLEWIGLIHPESGSTNYNEMFKNRATLTVDRSTSTAYMELSSLRSEDTAVYYCAGGGRLYFDYWGQGTTVTVSS
VL: DIVMTQSPLSLPVTPGEPASISCRSSQSLVHSNRDTYLRWYLQKPGQSPQLLIYKVSNRFSGVPDRFSGSGSGTDFTLKISRVEAEDVGVYYCSQSTHVPYTFGGGTKVEIKR
modifications: synthon CZ on reduced interchain Cys
Regarding B1, the EC50 in test [1] is 0.13 nM; in test [3], 4.86 nM. Further, the “EC50 nM H1650 (tumor cell cytotoxicity)” value in the test with Human full length B7-H3 [2] was determined as 0.4 nM.

B2: huAb3v2.2-CZ (antibody, V domains shown)
VH: B1 VH with E54W
VL: DIVMTQSPLSLPVTPGEPASISCRSSQSLVHSNRDTYLRWYLQKPGQSPQLLIYKVSNRFSGVPDRFSGSGSGTDFTLKISRVEAEDVGVYYCSQSTHVPYTFGGGTKVEIK
modifications: synthon CZ on reduced interchain Cys
notes: ADC, DAR 0.7
B2: the EC50 in test [1] is 0.1 nM; in test [3] it was 3.68 nM; with Human full length B7-H3 [4], 5.29 nM.

B3: huAb3v6 (antibody, V domains shown)
VH: B1 VH with E54D, M81V, Y95F
VL: B2 VL with I2V, R34G
notes: humanized IgG
The molecule B3 returned a Kd in test [5] of 0.2 nM.

B4: huAb3v2.3-CZ (antibody, V domains shown)
VH: B1 VH with E54W
VL: B2 VL with R34Q
modifications: synthon CZ on reduced interchain Cys
notes: ADC, DAR 1.1
With B4, the results for the EC50 (in test [1]; in test [3]; with Human full length B7-H3 [4]) were 0.11 nM, 4.03 nM and 6.5 nM, respectively.

B5: huAb3v2.9-CZ (antibody, V domains shown)
VH: B1 VH with E54I
VL: B2 VL with R34Q
modifications: synthon CZ on reduced interchain Cys
notes: ADC, DAR 2.7
Consider B5, for which the values for the EC50 (in test [1]; in test [3]; in the test with Human full length B7-H3 [4]) were 0.16 nM, 4.64 nM and 6.16 nM, respectively.

B6: huAb3v5-CZ (antibody, V domains shown)
VH: B1 VH with E54D
VL: B2 VL with I2V, R34G
modifications: synthon CZ on reduced interchain Cys
notes: ADC, DAR 3.1
With B6, the EC50 with Human full length B7-H3 [6] stood at 0.85 nM.

B7: huAb3v3-CZ (antibody, V domains shown)
VH: B1 VH with E54D, M81V, Y95F
VL: B2 VL with I2V, R34G, Y92F
modifications: synthon CZ on reduced interchain Cys
notes: ADC, DAR 3.6
B7 registered an EC50 with Human full length B7-H3 [6] of 1.68 nM.

B8: huAb3v6-CZ (antibody, V domains shown)
VH: B1 VH with E54D, M81V, Y95F
VL: B2 VL with I2V, R34G
modifications: synthon CZ on reduced interchain Cys
notes: ADC, DAR 3.3
B8 yielded an EC50 in the test with Human full length B7-H3 [6] of 1.78 nM.

B9: huAb3v2.8-CZ (antibody, V domains shown)
VH: B1 VH with E54I
VL: B2 VL
modifications: synthon CZ on reduced interchain Cys
notes: ADC, DAR 2.0
In the case of B9, the EC50 in test [1] was determined as 0.14 nM; in test [3] it was 3.01 nM; with Human full length B7-H3 [4], 3.94 nM.

B10: huAb3v4 (antibody, V domains shown)
VH: B1 VH with I48M, E54D, A68V, L70I, V72A, R74K, G98R
VL: B2 VL with I2V, R34G
notes: humanized IgG
In the case of B10, binding in test [5] was characterised by a dissociation constant (Kd) of 0.57 nM.

B11: huAb3v3 (antibody, V domains shown)
VH: B1 VH with E54D, M81V, Y95F
VL: B2 VL with I2V, R34G, Y92F
notes: humanized IgG
In test [5], B11 gave a Kd of 0.23 nM.

B12: huAb3v1-CZ (antibody, V domains shown)
VH: B1 VH with I48M, E54D, A68V, L70I, V72A, R74K, G98R
VL: B2 VL with R34G
modifications: synthon CZ on reduced interchain Cys
notes: ADC, DAR 3.6
Regarding B12, the EC50 with Human full length B7-H3 [6] was 1.45 nM.

B13: chAb3 (antibody, IgG1, V domains shown)
VH: QVQLQQPGAELVKPGASVKLSCKASGYTFSSYWMHWVKQRPGQGLEWIGLIHPDSGSTNYNEMFKNKATLTVDRSSSTAYVQLSSLTSEDSAVYFCAGGGRLYFDYWGQGTTLTVSS
VL: DVVMTQTPLSLPVSLGDQASISCRSSQSLVHSNGDTYLRWYLQKPGQSPKLLIYKVSNRFSGVPDRFSGSGSGTDFTLKITRVEAEDLGVYFCSQSTHVPYTFGGGTKLEIK
notes: chimeric, huIgG1/k
In test [5], B13 came in with a Kd of 19 nM. Besides, the EC50 with Human full length B7-H3 [7] turned out to be 0.61 nM.

B14: chAb3-CZ (antibody, IgG1, V domains shown)
VH: B13 VH
VL: B13 VL
modifications: synthon CZ on reduced interchain Cys
As to B14, the results for the EC50 with Human full length B7-H3 [6] and in the test with Human full length B7-H3 [8] were 0.61 nM and 0.65 nM, respectively.
